Measurements reported in patent US20160176956A1 (Novartis, published 2016).
Read-outs that look alike come from different tables or passages of the source.

T1: human BMP6 (human, UniProt P22004 382-513, limits assumed)
T1 sequence: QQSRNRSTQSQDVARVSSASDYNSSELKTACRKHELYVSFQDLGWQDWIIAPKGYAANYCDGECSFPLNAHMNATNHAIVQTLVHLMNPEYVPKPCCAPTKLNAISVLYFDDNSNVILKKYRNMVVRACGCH

T2: mouse BMP6 (mouse, UniProt P20722 372-510, limits assumed)
T2 construct: also called mBMP6; mBMP6_RD
T2 sequence (looked up): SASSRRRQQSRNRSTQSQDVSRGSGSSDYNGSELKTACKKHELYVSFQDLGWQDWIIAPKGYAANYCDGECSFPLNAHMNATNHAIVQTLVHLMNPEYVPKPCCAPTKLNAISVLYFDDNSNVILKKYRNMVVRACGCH

T3: human BMP7 (human, UniProt P18075 293-431)
T3 sequence: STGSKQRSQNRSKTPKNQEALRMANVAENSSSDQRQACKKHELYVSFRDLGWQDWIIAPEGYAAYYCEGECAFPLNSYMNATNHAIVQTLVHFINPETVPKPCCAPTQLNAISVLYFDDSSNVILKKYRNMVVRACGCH

T4: human BMP5 (human, UniProt P22003 317-454, limits assumed)
T4 sequence: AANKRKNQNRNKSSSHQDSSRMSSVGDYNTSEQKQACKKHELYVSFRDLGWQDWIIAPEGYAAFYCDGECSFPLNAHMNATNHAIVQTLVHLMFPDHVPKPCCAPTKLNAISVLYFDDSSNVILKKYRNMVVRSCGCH

B1: Antibody 5 (antibody, human IgG1, lambda, V domains shown)
VH: QVQLVESGGGLVKPGGSLRLSCAASGFTFSSYVVHWVRQAPGKGLEWVGRIKRESSSYTTMYAAPVKGRFTISRDDSKNTLYLQMNSLKTEDTAVYYCARVERSKSGFDNWGQGTLVTVSS
VL: QSVLTQPPSVSGAPGQRVTISCTGSSSNIGAGYSVHWYQQLPGTAPKLLIYGQSERPSGVPDRFSGSKSGTSASLAITGLQAEDEADYYCQSWDSSQTLVVFGGGTKLTVLG
notes: germlined clone of NOV0787 (HCDR2-matured NOV0442_VL[Y49,G50,N51Q]); human IgG1; lead antibody; also called NOV0951; NOV951
B2: Antibody 3 (antibody, human IgG1, lambda, V domains shown)
VH: QVQLVESGGGLVKPGGSLRLSCAASGFTFSSYVVHWVRQAPGKGLEWVGRIKDHKQGYTTAYAASVKGRFTISRDDSKNTLYLQMNSLKTEDTAVYYCARVERSKSGFDNWGQGTLVTVSS
VL: QSVLTQPPSVSGAPGQRVTISCTGSSSNIGAGYSVHWYQQLPGTAPKLLIYGSSERPSGVPDRFSGSKSGTSASLAITGLQAEDEADYYCQSWDSSQTLVVFGGGTKLTVLG
notes: germlined clone of NOV0800 (HCDR2-matured NOV0442_VL[Y49,G50,N51S]); human IgG1; back-up antibody; also called NOV0961; NOV961
B3: Antibody 7 (antibody, human IgG1, lambda, V domains shown)
VH: QVQLVESGGGLVKPGGSLRLSCAASGFTFSSYVVHWVRQAPGKGLEWVGRIRLETHGYAAEYAASVKGRFTISRDDSKNTLYLQMNSLKTEDTAVYYCARVERSKSGFDNWGQGTLVTVSS
VL: QSVLTQPPSVSGAPGQRVTISCTGSSSNIGAGYSVHWYQQLPGTAPKLLIYGQSERPSGVPDRFSGSKSGTSASLAITGLQAEDEADYYCQSWDSSQTLVVFGGGTKLTVLG
notes: germlined clone of NOV0806 (HCDR2-matured NOV0442_VL[Y49,G50,N51Q]); human IgG1; final lead; also called NOV0958; NOV958
B4: Antibody 6 (antibody, human IgG1, lambda, V domains shown)
VH: QVQLVESGGGLVKPGGSLRLSCAASGFTFSSYVVHWVRQAPGKGLEWVGRTRHSDMGYATSYAAPVKGRFTISRDDSKNTLYLQMNSLKTEDTAVYYCARVERSKSGFDNWGQGTLVTVSS
VL: QSVLTQPPSVSGAPGQRVTISCTGSSSNIGAGYSVHWYQQLPGTAPKLLIYGQSERPSGVPDRFSGSKSGTSASLAITGLQAEDEADYYCQSWDSSQTLVVFGGGTKLTVLG
notes: germlined clone of NOV0798 (HCDR2-matured NOV0442_VL[Y49,G50,N51Q]); human IgG1; lead antibody; also called NOV0954; NOV954

Key:
human BMP6 [1] = target: T1, human BMP6; assay: specificity ELISA, coated antigen, IgG 0.2 uM
Method: (§1) After washing the plates three times with 100 uL TBST, each antigen was incubated with 40 uL of purified Fab or IgG samples at a concentration of 1 uM and 0.2 uM respectively (in PBST buffer).
(§2) After 2 h incubation at RT, the plates were again washed three times and bound Fabs/IgGs detected by adding 40 uL of a 1:5000 dilution of secondary AP-conjugated anti-human IgG F(ab2) antibody. After 1 h at RT, the signal was developed by adding 40 uL AttoPhos substrate according to the manufacturer's protocol and the plates were analyzed immediately using an excitation wavelength of 430 nm and an emission wavelength of 535 nm with an ELISA plate reader.

mouse BMP6 = target: T2, mouse BMP6; assay: specificity ELISA, coated antigen, IgG 0.2 uM
Method: as §1, §2

human BMP7 [2] = target: T3, human BMP7; assay: specificity ELISA, coated antigen, IgG 0.2 uM
Method: as §1, §2

human BMP5 [3] = target: T4, human BMP5; assay: specificity ELISA, coated antigen, IgG 0.2 uM
Method: as §1, §2

Bovine serum albumin [4] = target: T5, Bovine serum albumin (bovine, UniProt P02769 25-607); assay: specificity ELISA, coated antigen, IgG 0.2 uM
T5 construct: unrelated control antigen in the specificity ELISA; also called BSA
T5 sequence (P02769 25-607 limits assumed): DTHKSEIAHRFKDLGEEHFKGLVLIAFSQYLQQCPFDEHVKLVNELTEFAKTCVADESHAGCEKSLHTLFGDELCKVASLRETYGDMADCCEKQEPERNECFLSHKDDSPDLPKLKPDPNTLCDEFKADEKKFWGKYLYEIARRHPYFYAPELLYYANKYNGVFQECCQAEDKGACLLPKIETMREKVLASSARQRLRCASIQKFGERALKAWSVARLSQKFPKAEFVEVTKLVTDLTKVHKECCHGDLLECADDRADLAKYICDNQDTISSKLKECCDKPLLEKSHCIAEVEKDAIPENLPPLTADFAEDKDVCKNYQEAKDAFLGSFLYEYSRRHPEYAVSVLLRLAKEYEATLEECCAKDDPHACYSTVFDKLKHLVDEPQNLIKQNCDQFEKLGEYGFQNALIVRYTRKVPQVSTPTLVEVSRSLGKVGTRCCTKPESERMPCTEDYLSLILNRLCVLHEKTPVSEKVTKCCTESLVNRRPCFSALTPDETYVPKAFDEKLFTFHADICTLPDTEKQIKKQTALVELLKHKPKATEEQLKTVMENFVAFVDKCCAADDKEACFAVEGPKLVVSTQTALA
Method: as §1, §2

human BMP6 [5] = target: T1, human BMP6; assay: Biacore
human BMP6 [6] = target: T1, human BMP6; assay: cell-based or functional assay
human BMP7 [7] = target: T3, human BMP7; assay: cell-based or functional assay
human BMP2 [8] = target: T6, human BMP2 (human, UniProt P12643 283-396); assay: cell-based or functional assay
T6 sequence (P12643 283-396 limits assumed): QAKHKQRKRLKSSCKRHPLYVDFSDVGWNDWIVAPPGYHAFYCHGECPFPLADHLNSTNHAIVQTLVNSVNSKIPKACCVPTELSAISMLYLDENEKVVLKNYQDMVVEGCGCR

human BMP6 [9] = target: T1, human BMP6; assay: cell-based or functional assay; remark: listed apart in the source
human BMP7 [10] = target: T3, human BMP7; assay: cell-based or functional assay; remark: listed apart in the source
human BMP2 [11] = target: T6, human BMP2; assay: cell-based or functional assay; remark: listed apart in the source
human BMP6 [12] = target: T1, human BMP6; assay: cell-based or functional assay; remark: listed apart in the source
human BMP6 [13] = target: T1, human BMP6; assay: cell-based or functional assay; remark: listed apart in the source
human BMP6 [14] = target: T1, human BMP6; assay: cell-based or functional assay; remark: listed apart in the source
human BMP6 [15] = target: T1, human BMP6; assay: method not stated in the table (Table 7 names Biacore)
[16] = target: 384 purified extracellular or secretory proteins (Protagen UNIchip); assay: Protagen UNIchip protein chip with 384 purified extracellular or secretory proteins, purified hIgG1
human BMP5 [17] = target: T4, human BMP5; assay: cell-based or functional assay
human BMP2 [18] = target: T6, human BMP2; assay: cell-based or functional assay; remark: listed apart in the source
human BMP5 [19] = target: T4, human BMP5; assay: cell-based or functional assay; remark: listed apart in the source
human BMP6 [20] = target: T1, human BMP6; assay: ELISA binding assay; reference human BMP7
Bovine serum albumin [21] = target: T5, Bovine serum albumin; assay: ELISA on coated antigen, detection with anti-Fab-AP, fluorescence signal intensity

Molecule	Signal over background (human BMP6 [1])	Signal over background (mouse BMP6)	Signal over background (human BMP7 [2])	Signal over background (human BMP5 [3])	Signal over background (Bovine serum albumin [4])	Kd (human BMP6 [5]) [nM]	BRE-luc reporter IC50 in Hep3B (human BMP6 [6]) [nM]	selectivity window of BMP6 over this BMP (BRE-luc reporter) (human BMP7 [7]) [fold]	RGA IC50 (human BMP6 [9]) [µg/mL]	RGA max (human BMP6 [9])	RGA min (human BMP6 [9])	RGA IC50 (human BMP7 [10]) [µg/mL]	RGA max (human BMP7 [10])	RGA min (human BMP7 [10])	RGA IC50 (human BMP2 [11]) [µg/mL]	RGA max (human BMP2 [11])	RGA min (human BMP2 [11])	BRE-Luc RGA IC50 (human BMP6 [12]) [nM]	RGA selectivity, hBMP6 over hBMP7 (human BMP6 [12]) [fold]	IC50(ug/ml) BMP6 reporter (human BMP6 [13]) [µg/mL]	other results
Control IgG (antibody)	61	18	14	4	1																
B1	65	24	8		1	~0.1	0.4	≥ 500	0.04	0.9	0.02	25	1	0.5	> 25	1	0.9	0.26	~1000	0.06	selectivity window of BMP6 over this BMP (BRE-luc reporter) (human BMP2 [8]): ≥ 500 fold; IC50 (read off the curve); BMP6-induced BRE-luc reporter activity in HEP3B cells (human BMP6 [14]): ~0.5 nM; Kd (human BMP6 [15]): 0.1 nM; off-target hits [16]: < 10 hits
B2	48	29	2	1	1				0.08	0.9	0.02	> 25	1	0.8	> 25	1	0.8				RGA IC50 (human BMP5 [17]): > 25 µg/mL; RGA max (human BMP5 [17]): 0.9; RGA min (human BMP5 [17]): 0.8
B3	59	32	7		1	~0.1	0.4	≥ 500	0.04	0.9	0.02	25	0.9	0.5				0.26	~1000	0.07	RGA IC50 (human BMP2 [18]): > 25 µg/mL; RGA max (human BMP2 [18]): 0.9; RGA min (human BMP2 [18]): 1.1; selectivity window of BMP6 over this BMP (BRE-luc reporter) (human BMP2 [18]): > 500 fold; selectivity window of BMP6 over this BMP (BRE-luc reporter) (human BMP5 [19]): ≥ 500 fold; RGA IC50 (human BMP5 [17]): > 25 µg/mL; RGA max (human BMP5 [17]): 1.1; RGA min (human BMP5 [17]): 1.1; IC50 (read off the curve); BMP6-induced BRE-luc reporter activity in HEP3B cells (human BMP6 [14]): ~0.5 nM; fold selectivity for human BMP6 over human BMP7 (human BMP6 [20]): > 500 fold; Kd (human BMP6 [15]): 0.1 nM; off-target hits [16]: < 10 hits; binding result (Bovine serum albumin [21]): no binding (tested: not given on the sheet)
B4	38	29	3	2	1	~0.1	0.4	≥ 500	0.05	1	0.02	25	0.9	0.5	> 25	1	1	0.3	~1000	0.08	selectivity window of BMP6 over this BMP (BRE-luc reporter) (human BMP5 [19]): ≥ 500 fold; selectivity window of BMP6 over this BMP (BRE-luc reporter) (human BMP2 [8]): ≥ 500 fold; RGA IC50 (human BMP5 [17]): > 25 µg/mL; RGA max (human BMP5 [17]): 1; RGA min (human BMP5 [17]): 0.9; IC50 (read off the curve); BMP6-induced BRE-luc reporter activity in HEP3B cells (human BMP6 [14]): ~0.5 nM; Kd (human BMP6 [15]): < 0.1 nM; off-target hits [16]: < 10 hits
